Test results: patent US20040175378A1, “Selected antibody compositions and methods for binding to aminophospholipids” (Board of Regents, The University of Texas System, priority 2002, published 2004)

Key:
[1] = system: Pichinde virus; format: cell-based
[2] = system: L540 human Hodgkin's lymphoma; experiment: 3G4 tumor treatment; format: in vivo, mice; details: subcutaneous L540 xenografts
Procedure: (§1) In the subcutaneous model, mice are typically injected with 1×10^7 cells in 0.2 ml. Mice are not anesthetized, but are restrained using a steady grip of mouse skin exposing the right flank. A 1 ml syringe with a 23 gauge needle is used to inject 1×10^7 cells in 200 μl, just under the skin of the mice and a bleb will be seen. It is not unusual to observe a small amount of fluid leak from the injection site. A twisting motion may be used when withdrawing the needle from the subcutaneous injection to reduce this leakage. Tumor volume is measured by L×W×H.
(§2) Treatment was repeated 3 times a week. Animals were monitored twice a week for tumor measurements.

[3] = system: tumor cells; experiment: Direct effect of 3G4 on tumor cells in vitro; format: cell-based
[4] = system: RSV long strain; experiment: RSV-infected A-549 cells, plaque assay; details: MOI 1, 100 μg antibody per well
[5] = Liposome competition for 3G4 binding to immobilized PS; details: 3G4 0.1 μg/ml
Procedure: Liposomes were prepared from solutions of 5 mg of a single phospholipid in chloroform. The solutions were dried under nitrogen to form a thin layer in a round-bottomed glass flask. Ten ml of Tris buffer (0.1 M, pH 7.4) were then added and the flask was sonicated five times for 2 min. […] The mixture was added to PS-coated plates (after standard blocking), incubated for 1 hour, washed and the secondary antibody added. After 1 hour, the plates were washed and developed for 5 minutes using OPD.

[6] = system: human CMV AD169; experiment: CMV-GFP infected HHF-R2 cells, fluorescent microscopy; details: MOI 0.01
[7] = system: bEnd.3 cells; experiment: Growth of bEnd.3 cells in vitro; format: cell-based; details: 20 μg to 40 μg total IgG per well, 48 and 96 hours
Procedure: 20% DMEM alone (control) or 20% DMEM containing the antibodies (20 μg to 40 μg total IgG per well) was added 4 hours after seeding. Each clone was tested on two separate plates in triplicates. Cells were detached 48 and 96 hours later, the cell count was determined in each well and the average cell number per treatment was calculated.

[8] = system: apoptotic tumor cells; experiment: Dendritic cell uptake of apoptotic tumor cells; format: cell-based; details: Fc(γ)R mediated internalization of 3G4-ATC complexes
[9] = ELISA binding to anionic phospholipids in 5 mM EDTA (Ca2+ requirement)
Procedure: The specificity of the 9D2 antibody binding was validated by using control rat IgM of irrelevant specificity (Pharmingen, San Diego, Calif.). The specificity of annexin V binding to phospholipids, which is Ca^2+-dependent, was determined by diluting the reagent in the DPBS containing 5 mM EDTA. Additional negative controls consisted of washing the plates with the binding buffer containing 0.2% of a detergent Tween 20. This treatment extracts lipids, thus removing the phospholipid that was absorbed to plastic. Neither 9D2 antibody nor annexin V bound to detergent-washed plates.

[10] = Binding to heparin, heparan sulfate and DNA
[11] = system: various tumors; experiment: 3G4 in syngeneic and xenogeneic tumor models, overall
[12] = monkey, in vivo
[13] = system: H2O2-treated HL-60 tumor cells; experiment: Macrophage phagocytosis of PS-positive tumor cells; details: 5 μg/ml, vs isotype-matched control antibody
[14] = system: orthotopic MDA-MB-231 breast cancer; experiment: 3G4 tumor treatment and histology; format: in vivo, mice
Procedure: FIG. 17A and FIG. 17B. […] At the conclusion of treatment, animals were perfused and tumors were snap-frozen, cut and stained with an antibody to murine CD31 (rat, anti-mouse CD31), a pan-endothelial marker of murine vasculature (FIG. 17A), or embedded in paraffin and strained with H&E (FIG. 17B).
In the orthotopic model, 1×10^7 cells in 0.1 ml DMEM are typically injected into MFP of anesthetized mice. Mice are anesthetized with 0.075 ml of mouse cocktail injected IP. The mouse cocktail is 5 ml Ketamine (100 mg/ml); 2.5 ml Xylazine (20 mg/ml); 1 ml Acepromazine (10 mg/ml); 11 ml sterile water. Dosage is 0.1 ml per 20-30 grams body weight via the IP route for a duration of 30 minutes.
Once the mouse is anesthetized, as measured by no response to toe/foot pinch, the mouse is laid on its left side and wiped with 70% ethanol just behind the head and around the right forearm/back area. […] 0.1 ml of cells are injected into the fat pad using a 1 ml syringe and a 27-gauge needle, producing a bleb in the fat pad. The incision is closed using a 9 mm sterile wound clip. The mouse is returned to its cage and observed until it has wakened from anesthesia and is mobile. Post-operative health status is determined, and if any signs of distress are observed, the animal is given acetaminophen (0.24 mg/ml)+codeine (0.024 mg/ml) in the drinking water. The wound clip is removed after 1 week. This method is used so that the cells are accurately placed into the selected site and not into the subcutaneous region. Tumors will be approximately 200 μl in volume (L×W×W) in 14-15 days and the take rate is essentially 100%.
as §2

[15] = system: human CMV AD169; experiment: CMV viral load by plaque assay; format: cell-based; details: for decrease in viral titer: high m.o.i.
[16] = system: mCMV RVG102; experiment: Survival of mCMV-infected mice; format: in vivo, Balb/C mice; details: 1 mg/mouse i.p. day 1, 0.5 mg/mouse every four days until day 26; past 90 days
[17] = system: Meth A fibrosarcoma; experiment: 3G4 tumor treatment; format: in vivo, mouse
Procedure: as §1, §2

[18] = system: Tissue Factor (TF)-induced coagulation
[19] = m.o.i. 0.01 pfu/cell, 100 μg/ml

B1: 3G4: mouse IgG3 kappa monoclonal antibody binding PS and other anionic phospholipids; hybridoma ATCC PTA 4545 (antibody, V domains shown)
VH: EVQLQQSGPELEKPGASVKLSCKASGYSFTGYNMNWVKQSHGKSLEWIGHIDPYYGDTSYNQKFRGKATLTVDKSSSTAYMQLKSLTSEDSAVYYCVKGGYYGHWYFDVWGAGTTVTVSSATTTAPSVYPLVP
VL: DIQMTQSPSSLSASLGERVSLTCRASQDIGSSLNWLQQGPDGTIKRLIYATSSLDSGVPKRFSGSRSGSDYSLTISSLESEDFVDYYCLQYVSSPPTFGAGTKLELKRADAAPTVFIFGRIP
For B1, the infected cells [1] was “about one in about a hundred cells”, the growth retardation [2] was 65% and the “direct inhibitory effect on tumor cells” value [3] was “No direct inhibitory effect on tumor cells was observed”. For the same molecule, the “decrease in viral titer” value [4] was 2 log10, the “binding to PS adsorbed to ELISA plates in the presence of liposomes” value [5] was “blocked by liposomes prepared from PS, PA, PI, PG and CL” and the “entry of the virus into the cells” value ([6]; day 3, 50 and 100 μg/ml) was “does not appear to significantly inhibit the entry of the virus”. For the same molecule, the “spread of CMV from the original infected cell” value ([6]; day 9, 100 and 50 μg/ml) was “restricted to the original singly-infected cell”, the “inhibitory effect on growth of bEnd.3 cells” value [7] was “particularly effective” and the “enhancement of DC uptake of apoptotic tumor cells” value [8] was 300%. For the same molecule, the “binding to anionic phospholipids in the presence of 5 mM EDTA” value [9] was “unaffected by the presence of 5 mM EDTA”, the “binding to heparin, heparan sulfate or double or single stranded DNA” value [10] was “does not bind detectably” and the “toxicity in treated tumor-bearing mice” value ([11]; 100 μg i.p. 3 times a week) was “No toxicity was observed”. The “localization after intravenous injection” value ([11]; mice bearing various tumors) was “specifically and consistently localized to the tumor, but not to normal organs”, the side effects [12] was “no side effects have been observed” and the “increase in phagocytosis of PS-positive cells by macrophages” value [13] was “more than three fold”. The “mice with long-term complete remissions” value ([14]; MBA-MD-231 tumors) was 30%, the “reduction in microvascular density, treated vs. untreated mice” value ([14]; histological examination) was 70% and the growth retardation ([14]; orthotopic MDA-MB-231) was 50%. For the same molecule, the “decrease in viral titer” value ([15]; addition delayed to 48 hours) was 2 log10, the “decrease in viral titer” value ([15]; addition up to 24 hours after infection) was 5-6 log10 and the “decrease in viral titer as compared to GV39G-treatment” value ([15]; m.o.i. 0.01 pfu/cell, 50 μg/ml) was 3.5 log10. The “decrease in viral titer as compared to GV39G-treated cells” value [15, 19] was 6 log10, the “inhibition of viral replication” value [15, 19] was “approximately 99.9999%” and the “inhibition of viral replication compared to GV39G” value ([15]; m.o.i. 3, 50 μg/ml) was 3 logs. The “decrease in viral titer as compared to GV39G-treated cells” value ([15]; m.o.i. 3, 100 μg/ml) was 5 log10, the survival [16] was 100% and the “mice with long-term complete remissions” value ([17]; Meth A-bearing mice) was 50%. For the same molecule, the growth retardation ([17]; syngeneic Meth A) was 90% and the “inhibition of Tissue Factor (TF)-induced coagulation” value [18] was “weak inhibition”.
